From the supplement of paper PMC9112550, “Optimization of the antimicrobial peptide Bac7 by deep mutational scanning” (BMC Biology, 2022)

System: Escherichia coli TOP10
Assay: shrunken log2 fold change of peptide-encoding DNA abundance (4.5 h post-induction vs induction); higher = less antimicrobial activity (less host growth inhibition)
Details: time post-induction: 4.5 h; library: site-saturation at positions 5, 18, 19, 20
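Also: peptides expressed intracellularly from a pBAD plasmid library in pooled LB shake-flask culture, induced with 0.3% L-arabinose, DNA abundance read by NGS, three biological replicates, DESeq2 with apeglm shrinkage.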

Sequence	shrunken log2 fold change
RRIRPRPPRLPRPRPRPMHRPRP	0.0978
RRIRLRPPRLPRPRPRPKGLPRP	-0.0393
RRIRVRPPRLPRPRPRPLSNPRP	-0.413
RRIRYRPPRLPRPRPRPCHMPRP	-0.218
RRIRCRPPRLPRPRPRPCCDPRP	-0.27
RRIRTRPPRLPRPRPRPTLKPRP	0.00476
RRIRGRPPRLPRPRPRPIRDPRP	0.0394
RRIRGRPPRLPRPRPRPIPLPRP	0.16
RRIRRRPPRLPRPRPRPYICPRP	-0.452
RRIRVRPPRLPRPRPRPQEFPRP	-0.06
RRIRDRPPRLPRPRPRPPEWPRP	0.557
RRIRNRPPRLPRPRPRPACNPRP	-0.148
RRIRPRPPRLPRPRPRPQWCPRP	-0.0525
RRIRTRPPRLPRPRPRPWFIPRP	-0.64
RRIRVRPPRLPRPRPRPHIGPRP	-0.0312
RRIRVRPPRLPRPRPRPFRDPRP	-0.0207
RRIRNRPPRLPRPRPRPKLPPRP	0.0992
RRIRYRPPRLPRPRPRPERYPRP	0.11
RRIRPRPPRLPRPRPRPKCYPRP	-0.193
RRIRFRPPRLPRPRPRPKENPRP	-0.222
RRIRFRPPRLPRPRPRPNDIPRP	-0.169
RRIRIRPPRLPRPRPRPVHWPRP	0.0203
RRIRYRPPRLPRPRPRPLQIPRP	-0.51
RRIRVRPPRLPRPRPRPQELPRP	-0.0343
RRIRRRPPRLPRPRPRPAPGPRP	0.812

Sequence	shrunken log2 fold change
RRIRCRPPRLPRPRPRPQTYPRP	-0.727
RRIRTRPPRLPRPRPRPIWHPRP	0.12
RRIRLRPPRLPRPRPRPMTDPRP	-0.189
RRIRRRPPRLPRPRPRPTMYPRP	0.0102
RRIRERPPRLPRPRPRPLANPRP	-0.225
RRIRNRPPRLPRPRPRPPGQPRP	0.0465
RRIRMRPPRLPRPRPRPQCDPRP	-0.0599
RRIRNRPPRLPRPRPRPSLDPRP	-0.258
RRIRSRPPRLPRPRPRPTLKPRP	-0.139
RRIRERPPRLPRPRPRPLSIPRP	-0.367
RRIRFRPPRLPRPRPRPVYAPRP	-0.444
RRIRIRPPRLPRPRPRPACNPRP	-0.363
RRIRCRPPRLPRPRPRPWQAPRP	0.204
RRIRTRPPRLPRPRPRPVQPPRP	0.238
RRIRIRPPRLPRPRPRPQWAPRP	0.0405
RRIRIRPPRLPRPRPRPEEAPRP	0.215
RRIRSRPPRLPRPRPRPGPPPRP	0.46
RRIRTRPPRLPRPRPRPDFYPRP	-0.241
RRIRFRPPRLPRPRPRPDQQPRP	-0.078
RRIRSRPPRLPRPRPRPHRGPRP	-0.128
RRIRVRPPRLPRPRPRPTKRPRP	0.331
RRIRNRPPRLPRPRPRPEYQPRP	0.00318
RRIRQRPPRLPRPRPRPFDIPRP	-0.16
RRIRGRPPRLPRPRPRPERYPRP	-0.107
RRIRFRPPRLPRPRPRPVTEPRP	-0.0132

Sequence	shrunken log2 fold change
RRIRQRPPRLPRPRPRPQREPRP	0.00728
RRIRERPPRLPRPRPRPEMIPRP	-0.0286
RRIRMRPPRLPRPRPRPGWAPRP	0.965
RRIRTRPPRLPRPRPRPPCYPRP	-0.139
RRIRIRPPRLPRPRPRPMYTPRP	-0.244
RRIRTRPPRLPRPRPRPINRPRP	0.028
RRIRARPPRLPRPRPRPNAEPRP	0.679
RRIRFRPPRLPRPRPRPVQRPRP	-0.072
RRIRPRPPRLPRPRPRPCSIPRP	-0.232
RRIRARPPRLPRPRPRPKNSPRP	-0.0129
RRIRWRPPRLPRPRPRPQCAPRP	0.572
RRIRGRPPRLPRPRPRPQPIPRP	0.114
RRIRFRPPRLPRPRPRPMAMPRP	0.102
RRIRWRPPRLPRPRPRPVPEPRP	0.634
RRIRPRPPRLPRPRPRPSFSPRP	-0.578
RRIRMRPPRLPRPRPRPTWHPRP	0.309
RRIRARPPRLPRPRPRPPRAPRP	0.932
RRIRDRPPRLPRPRPRPQGSPRP	-0.0152
RRIRQRPPRLPRPRPRPHKFPRP	-0.279
RRIRERPPRLPRPRPRPNTCPRP	-1.13
RRIRQRPPRLPRPRPRPVDCPRP	-0.013
RRIRWRPPRLPRPRPRPAQKPRP	0.157
RRIRVRPPRLPRPRPRPFQKPRP	0.0406
RRIRQRPPRLPRPRPRPQEYPRP	0.0742
RRIRFRPPRLPRPRPRPWTAPRP	-0.283

Sequence	shrunken log2 fold change
RRIRERPPRLPRPRPRPSYRPRP	3.5
RRIRKRPPRLPRPRPRPFPMPRP	0.0227
RRIRGRPPRLPRPRPRPELEPRP	2.14
RRIRTRPPRLPRPRPRPTDHPRP	-0.283
RRIRHRPPRLPRPRPRPAAHPRP	0.274
RRIRDRPPRLPRPRPRPFWHPRP	-0.166
RRIRSRPPRLPRPRPRPYFNPRP	-0.626
RRIRKRPPRLPRPRPRPEWTPRP	0.0364
RRIRWRPPRLPRPRPRPFAFPRP	-0.195
RRIRGRPPRLPRPRPRPMMYPRP	0.163
RRIRDRPPRLPRPRPRPQKCPRP	0.0207
RRIRWRPPRLPRPRPRPSYHPRP	-0.568
RRIRIRPPRLPRPRPRPAMQPRP	0.0843
RRIRKRPPRLPRPRPRPFPTPRP	2.75
RRIRNRPPRLPRPRPRPGWDPRP	-0.00506
RRIRYRPPRLPRPRPRPADWPRP	0.0899
RRIRVRPPRLPRPRPRPDNLPRP	0.0725
RRIRPRPPRLPRPRPRPWSNPRP	-0.52
RRIRDRPPRLPRPRPRPSHFPRP	-0.0338
RRIRVRPPRLPRPRPRPYQHPRP	-0.301
RRIRPRPPRLPRPRPRPGGCPRP	0.295
RRIRDRPPRLPRPRPRPSQWPRP	-0.119
RRIRSRPPRLPRPRPRPYGCPRP	-0.248
RRIRWRPPRLPRPRPRPNYQPRP	-0.365
RRIRVRPPRLPRPRPRPCAAPRP	0.121

Sequence	shrunken log2 fold change
RRIRLRPPRLPRPRPRPKHVPRP	-0.0799
RRIRWRPPRLPRPRPRPFRMPRP	-0.122
RRIRVRPPRLPRPRPRPNHYPRP	-0.501
RRIRMRPPRLPRPRPRPTERPRP	0.582
RRIRTRPPRLPRPRPRPKNIPRP	-0.627
RRIRCRPPRLPRPRPRPGSLPRP	0.0481
RRIRARPPRLPRPRPRPWFGPRP	0.118
RRIRSRPPRLPRPRPRPQIYPRP	-0.354
RRIRGRPPRLPRPRPRPTDLPRP	-0.109
RRIRPRPPRLPRPRPRPKATPRP	0.463
RRIRCRPPRLPRPRPRPCWYPRP	0.0339
RRIRMRPPRLPRPRPRPVFNPRP	-0.0958
RRIRSRPPRLPRPRPRPYGYPRP	-0.00281
RRIRWRPPRLPRPRPRPFWMPRP	-0.235
RRIRPRPPRLPRPRPRPGKRPRP	0.389
RRIRMRPPRLPRPRPRPKCCPRP	0.26
RRIRERPPRLPRPRPRPHIMPRP	-0.652
RRIRIRPPRLPRPRPRPLRNPRP	-0.0491
RRIRMRPPRLPRPRPRPNCQPRP	0.356
RRIRNRPPRLPRPRPRPTLGPRP	0.3
RRIRQRPPRLPRPRPRPHESPRP	-0.126
RRIRKRPPRLPRPRPRPCYCPRP	-0.0227
RRIRQRPPRLPRPRPRPGCRPRP	0.342
RRIRPRPPRLPRPRPRPQTQPRP	0.115
RRIRVRPPRLPRPRPRPHWMPRP	-0.32
